Results taken from patent US20230287125A1 (LEPU BIOPHARMA, published 2023).

Assays:
[1] = target: T1, human PD-L1-Fc protein (human, UniProt Q9NZQ7 19-238); test: receptor blocking ELISA: coated human PD-L1-Fc, blocked ligand biotin-labeled human PD-1-Fc (Bio-PD1), OD 450nm; panel with Hu67F3G7-22 [cont'd]
T1 construct: coating antigen of the ELISAs; also called rhPD-L1-Fc; not shown: Fc
Procedure: (§1) Briefly, microtiter plates were coated with human PD-L1-Fc protein at 0.5 μg/ml in PBS, 100 μl/well at 4° C. overnight, then blocked with 150 μl/well of 1% BSA at 37° C. for 2 hours. […] The plates were washed with PBS/Tween and then incubated with Streptavidin-HRP for 10 mins at 37° C. After washing, the plates were developed with TMB substrate and analyzed by spectrophotometer at OD 450 nm.

[2] = target: T1, human PD-L1-Fc protein; test: receptor blocking ELISA: coated human PD-L1-Fc, blocked ligand biotin-labeled human PD-1-Fc (Bio-PD1), OD 450nm; middle left panel (with Hu67F3G7-5)
Procedure: as §1

[3] = target: T1, human PD-L1-Fc protein; test: ELISA, antibody titrated on coated human PD-L1-Fc, OD 450nm; lower left panel (with Hu67F3G7-13 to -18); the table row is headed 'IC50' on the sheet although the curves rise
Procedure: (§2) To evaluate antigen binding activity, the humanized antibodies were subjected to ELISA test. Briefly, microtiter plates were coated with human PD-L1-Fc protein at 0.5 μg/ml in PBS, 100 μl/well at 4° C. overnight, then blocked with 200 μl/well of 1% BSA. Three-fold dilutions of humanized antibodies starting from 10 μg/ml were added to each well and incubated for 1 hour at 37° C. The plates were washed with PBS/Tween and then incubated with mouse-anti-human IgG Fab antibody conjugated with Horse Radish Peroxidase (HRP) for 1 hour at 37° C. After washing, the plates were developed with TMB substrate and analyzed by spectrophotometer at OD 450 nm.

[4] = target: T1, human PD-L1-Fc protein; test: receptor blocking ELISA: coated human PD-L1-Fc, blocked ligand biotin-labeled human CD80-Fc (Bio-CD80), OD 450nm; panel with Hu67F3G7-22 [cont'd]
Procedure: as §1

[5] = target: mouse PD-L1 protein (mouse, UniProt Q9EP73 19-239); test: ELISA, coated mouse PD-L1
Chain of mouse PD-L1 protein (Q9EP73 19-239 limits assumed): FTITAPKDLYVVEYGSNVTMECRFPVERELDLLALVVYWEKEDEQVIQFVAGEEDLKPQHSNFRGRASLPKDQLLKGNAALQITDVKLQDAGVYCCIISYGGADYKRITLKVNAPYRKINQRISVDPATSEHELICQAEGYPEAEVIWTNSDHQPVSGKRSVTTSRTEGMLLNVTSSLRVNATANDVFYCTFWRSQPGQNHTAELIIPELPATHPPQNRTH

[6] = target: T1, human PD-L1-Fc protein; test: ELISA, antibody titrated on coated human PD-L1-Fc, OD 450nm; lower right panel (with Hu67F3G7-19 to -22)
Procedure: as §2

[7] = target: rat PD-L1 protein (rat, UniProt D4AE25 19-239); test: ELISA, coated rat PD-L1
Chain of rat PD-L1 protein (D4AE25 entry or part of it limits assumed): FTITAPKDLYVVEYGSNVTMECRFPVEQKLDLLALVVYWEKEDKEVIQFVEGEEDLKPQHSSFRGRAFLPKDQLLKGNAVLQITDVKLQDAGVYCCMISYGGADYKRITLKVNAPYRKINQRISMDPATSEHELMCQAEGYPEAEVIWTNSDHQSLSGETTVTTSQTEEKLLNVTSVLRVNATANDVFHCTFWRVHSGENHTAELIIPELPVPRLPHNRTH

[8] = target: T1, human PD-L1-Fc protein; test: receptor blocking ELISA: coated human PD-L1-Fc, blocked ligand biotin-labeled human CD80-Fc (Bio-CD80), OD 450nm; upper right panel (with Hu67F3G7-3)
Procedure: as §1

[9] = target: T1, human PD-L1-Fc protein; test: receptor blocking ELISA: coated human PD-L1-Fc, blocked ligand biotin-labeled human CD80-Fc (Bio-CD80), OD 450nm; middle right panel (with Hu67F3G7-7)
Procedure: as §1

[10] = target: T2, human PD-L1-his tag protein (human, UniProt Q9NZQ7 19-238); test: SPR (Biacore T200), mAb captured on Protein A chip, PD-L1-his injected
T2 construct: also called human PD-L1-His protein; recombinant PD-L1 protein; not shown: his tag
T2 sequence (Q9NZQ7 19-238 limits assumed): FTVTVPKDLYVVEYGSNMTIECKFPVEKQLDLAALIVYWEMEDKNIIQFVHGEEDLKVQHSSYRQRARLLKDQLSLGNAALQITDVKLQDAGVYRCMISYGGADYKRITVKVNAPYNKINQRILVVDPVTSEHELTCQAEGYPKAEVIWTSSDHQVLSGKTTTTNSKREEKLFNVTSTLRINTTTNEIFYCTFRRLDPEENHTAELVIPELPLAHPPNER
Procedure: A serial dilution of human PD-L1-his tag protein was injected over captured antibody for 2 mins at a flow rate of 30 μl/min. The antigen was allowed to dissociate for 480-1500 s. All the experiment were carried out on a Biacore T200. Data analysis was carried out using Biacore T200 evaluation software.

[11] = target: T1, human PD-L1-Fc protein; test: receptor blocking ELISA: coated human PD-L1-Fc, blocked ligand biotin-labeled human CD80-Fc (Bio-CD80), OD 450nm; middle left panel (with Hu67F3G7-5)
Procedure: as §1

[12] = target: T1, human PD-L1-Fc protein; test: ELISA, coated human PD-L1 (PD-L1-Fc per paragraph 110)
Procedure: as §1, with “1% BSA.” for “1% BSA at 37° C. for 2 hours.”, “with Mouse-anti-human IgG Fab antibody conjugated with Horse Radish Peroxidase (HRP)” for “with Streptavidin-HRP”, “for 30” for “for 10”
Briefly, microtiter plates were coated with human, mouse, rat and cynomolgus PD-L1 proteins at 0.5 μg/ml in PBS, 100 μl/well at 4° C. overnight, then blocked with 150 μl/well of 1% BSA. Three-fold dilutions of chimeric antibodies starting from 10 μg/ml were added to each well and incubated for 1 hour at 37° C. The plates were washed with PBS/Tween and then incubate with mouse-anti-human IgG Fab antibody conjugated with Horse Radish Peroxidase (HRP) for 30 mins at 37° C. After washing, the plates were developed with TMB substrate and analyzed by spectrophotometer at OD 450 nm.

[13] = target: cynomolgus PD-L1 protein (cynomolgus, UniProt G7PSE7 19-238); test: ELISA, coated cynomolgus PD-L1
Chain of cynomolgus PD-L1 protein (G7PSE7 entry or part of it): as the sequence (Q9NZQ7 19-238 limits assumed) above, with A33T, A34S, S62N, R68Q, Q82R, F173L, T185A, T192I, H215L counted along it

T1 sequence (Q9NZQ7 19-238 limits assumed): as the sequence (Q9NZQ7 19-238 limits assumed) above

B1: 67F3G7 chimeric mAb (antibody, V domains shown)
VH: QVKLLQSGAALVKPGASVKMSCKASGYIFTDFWVSWVKQSHEKSLEWIGEIYPNSGVSRYNEKFKGRATMTVDKSTSTAYLELSRLTSEDSAIYYCTKYFGYTYWFGYWGQGTLVTVSS
VL: DTVLTQSPALAVSLGQRITISCRASKSVSTYMHWYQQRSGLQPKLLIYSASHLESGVPSRFSGSGSGTDFTLTIDPVEADDIANYYCQQSNELPVTFGSGTKLEIK
notes: chimeric mAb of the hybridoma clone; also called 67F3G7-chimera
B1 was tested, and the IC50 [1] was 0.141 µg/mL, the IC50 [2] was 0.149 µg/mL and the EC50 [3] was 0.0157 µg/mL. For the same binder, the IC50 [4] was 0.293 µg/mL, the binding result [5] was “no binding (tested: dilutions starting from 10 µg/ml)” and the EC50 [6] was 0.0147 µg/mL. The binding result [7] was “no binding (tested: dilutions starting from 10 µg/ml)”, the IC50 [8] was 0.289 µg/mL and the IC50 [9] was 0.283 µg/mL. It also gave a Kd [10] of 24.4 pM, a koff [10] of 6.19e-05 s⁻¹ and a kon [10] of 2.54e+06 M⁻¹ s⁻¹. For the same binder, the IC50 [11] was 0.274 µg/mL, the EC50 [12] was 0.0108 µg/mL and the EC50 [13] was 0.0068 µg/mL.
